For one data set, the target named is T1, GrsA (Aneurinibacillus migulanus, UniProt P0C061).
T1 sequence (P0C061 1-428 limits assumed): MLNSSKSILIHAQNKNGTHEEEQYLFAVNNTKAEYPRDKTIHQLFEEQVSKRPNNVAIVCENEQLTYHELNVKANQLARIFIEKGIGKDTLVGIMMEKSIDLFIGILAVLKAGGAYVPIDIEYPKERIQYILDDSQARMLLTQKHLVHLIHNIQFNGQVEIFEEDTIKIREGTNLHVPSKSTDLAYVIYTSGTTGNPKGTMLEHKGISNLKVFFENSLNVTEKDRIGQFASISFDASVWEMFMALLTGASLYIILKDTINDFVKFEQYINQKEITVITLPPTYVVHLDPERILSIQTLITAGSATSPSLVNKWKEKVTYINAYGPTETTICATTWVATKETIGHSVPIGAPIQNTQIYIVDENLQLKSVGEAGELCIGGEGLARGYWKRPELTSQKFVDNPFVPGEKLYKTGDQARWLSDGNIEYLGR
The experiment in a line: isothermal titration calorimetry. It is filed as binding. (In general: ITC needs no label: the signal is the heat of the interaction.)

Another data set deals with NC(Cc1cccc(F)c1)C(=O)O. The experiment in a line: adenylation saturation kinetics. The format is biochemical, Aneurinibacillus migulanus. As to conditions: ATP A-domain binding pocket enlarged by W239S.
The test system of a further data set is NC(Cc1ccccc1F)C(=O)O. The experiment in a line: adenylation saturation kinetics. It is filed as biochemical, Aneurinibacillus migulanus. The following applies: ATP A-domain binding pocket enlarged by W239S.
Substrate in data set [1]: CC(C)C(N)C(=O)O
The experiment in a line: adenylation saturation kinetics. It is filed as biochemical, Bacillus subtilis. The following applies: ATP.

Substrate in data set [2]: CC(C)(F)C(N)C(=O)O
The experiment in a line: adenylation saturation kinetics. As to conditions: ATP. The format is biochemical, Bacillus subtilis.

Substrate in data set [3]: NC(Cc1cc(F)cc(F)c1)C(=O)O
The experiment in a line: adenylation saturation kinetics. The following applies: ATP A-domain binding pocket; T-shaped aromatic interaction with Trp239. The format is biochemical, Aneurinibacillus migulanus.

Substrate in data set [4]: NC(Cc1cccc(F)c1)C(=O)O
The experiment in a line: adenylation saturation kinetics. As to conditions: ATP A-domain binding pocket; T-shaped aromatic interaction with Trp239. The format is biochemical, Aneurinibacillus migulanus.

Substrate in data set [5]: NC(Cc1ccccc1F)C(=O)O
The experiment in a line: adenylation saturation kinetics. It is filed as biochemical, Aneurinibacillus migulanus. As to conditions: ATP A-domain binding pocket; T-shaped aromatic interaction with Trp239.

In the case of `NC(Cc1ccccc1)C(=O)O` (racemic) [Phe], binding at GrsA was characterised by a dissociation constant (Kd) of 60 ± 10 µM.

“GrsA-W239S (Aneurinibacillus migulanus; W239S)”: in the data set on NC(Cc1cccc(F)c1)C(=O)O, the Michaelis constant (Km) (commonly the concentration of substrate that gives half-maximal velocity) is 900 ± 100 µM; the kcat (in general, the maximal rate divided by the concentration of active sites) came to 0.233 ± 0.0167 s⁻¹; the kcat/Km (commonly the second-order rate constant that governs catalysis at low substrate concentration) came to 250 M⁻¹ s⁻¹. For the same molecule, in the data set with NC(Cc1ccccc1F)C(=O)O, the Km worked out at 3000 ± 1000 µM, the kcat came to 0.667 ± 0.167 s⁻¹ and the kcat/Km stood at 267 M⁻¹ s⁻¹.

B1: SrfA-B1 (Bacillus subtilis subsp. subtilis str. 168) (protein)
chain: ASTAVVYEGTKLTYRELNAAANRLARKLVEHGLQKGETAAIMNDRSVETVVGMLAVLKAGAAYVPLDPALPGDRLRFMAEDSSVRMVLIGNSYTGQAHQLQVPVLTLDIGFEESEAADNLNLPSAPSDLAYIMYTSGSTGKPKGVMIEHKSILRLVKNAGYVPVTEEDRMAQTGAVSFDAGTFEVFGALLNGAALYPVKKETLLDAKQFAAFLREQSITTMWLTSPLFNQLAAKDAGMFGTLRHLIIGGDALVPHIVSKVKQASPSLSLWNGYGPTENTTFSTSFLIDREYGGSIPIGKPIGNSTAYIMDEQQCLQPIGAPGELCVGGIGVARGYVNLPELTEKQFLEDPFRPGERIYRTGDLARWLPDGNIEFLGRIDNQVKVRGFRIELGEIETKLNMAEHVTEAAVIIRKNKADENEICAYFTADREVAVSELRKTLSQSLPDYMVPAHLIQMDSLPLTPNGKINKKELPAPQSEAVQ
For the molecule B1, in data set [1], the Km was determined as 60 ± 20 µM, the kcat turned out to be 0.133 ± 0.0333 s⁻¹ and the kcat/Km stood at 2330 M⁻¹ s⁻¹. In data set [2], the Km was found to be 8000 ± 1000 µM, the kcat turned out to be 0.467 ± 0.05 s⁻¹ and the kcat/Km stood at 58.3 M⁻¹ s⁻¹.

B2: GrsA (Aneurinibacillus migulanus) (protein)
chain: MLNSSKSILIHAQNKNGTHEEEQYLFAVNNTKAEYPRDKTIHQLFEEQVSKRPNNVAIVCENEQLTYHELNVKANQLARIFIEKGIGKDTLVGIMMEKSIDLFIGILAVLKAGGAYVPIDIEYPKERIQYILDDSQARMLLTQKHLVHLIHNIQFNGQVEIFEEDTIKIREGTNLHVPSKSTDLAYVIYTSGTTGNPKGTMLEHKGISNLKVFFENSLNVTEKDRIGQFASISFDASVWEMFMALLTGASLYIILKDTINDFVKFEQYINQKEITVITLPPTYVVHLDPERILSIQTLITAGSATSPSLVNKWKEKVTYINAYGPTETTICATTWVATKETIGHSVPIGAPIQNTQIYIVDENLQLKSVGEAGELCIGGEGLARGYWKRPELTSQKFVDNPFVPGEKLYKTGDQARWLSDGNIEYLGRIDNQVKIRGHRVELEEVESILLKHMYISETAVSVHKDHQEQPYLCAYFVSEKHIPLEQLRQFSSEELPTYMIPSYFIQLDKMPLTSNGKIDRKQLPEPDLTFGMRVDYEAPRNEIEETLVTIWQDVLGIEKIGIKDNFYALGGDSIKAIQVAARLHSYQLKLETKDLLKYPTIDQLVHYIKDSKRRSEQGIVEGEIGLTPIQHWFFEQQFTNMHHWNQSYMLYRPNGFDKEILLRVFNKIVEHHDALRMIYKHHNGKIVQINRGLEGTLFDFYTFDLTANDNEQQVICEESARLQNSINLEVGPLVKIALFHTQNGDHLFMAIHHLVVDGISWRILFEDLATAYEQAMHQQTIALPEKTDSFKDWSIELEKYANSELFLEEAEYWHHLNYYTENVQIKKDYVTMNNKQKNIRYVGMELTIEETEKLLKNVNKAYRTEINDILLTALGFALKEWADIDKIVINLEGHGREEILEQMNIARTVGWFTSQYPVVLDMQKSDDLSYQIKLMKENLRRIPNKGIGYEIFKYLTTEYLRPVLPFTLKPEINFNYLGQFDTDVKTELFTRSPYSMGNSLGPDGKNNLSPEGESYFVLNINGFIEEGKLHITFSYNEQQYKEDTIQQLSRSYKQHLLAIIEHCVQKEDTELTPSDFSFKELELEEMDDIFDLLADSLT
Consider B2, for which the Km came out at 14 ± 3 µM in data set [3], 14 ± 5 µM in data set [4] and 20 ± 2 µM in data set [5]. In addition, the kcat turned out to be 0.517 ± 0.0333 s⁻¹ in data set [3], 0.35 ± 0.0333 s⁻¹ in data set [4] and 0.458 ± 0.0133 s⁻¹ in data set [5]. In addition, the results for the kcat/Km in data set [3], in data set [4] and in data set [5] were 36700 M⁻¹ s⁻¹, 25000 M⁻¹ s⁻¹ and 23300 M⁻¹ s⁻¹, respectively.

The record behind these values is publication PMC10467612 (RSC Chemical Biology, 2023).
